The values that follow are results of earlier work, collected in PMC12192639.

Series [1] has as its target SSB C-terminal peptide last eight amino acids (Escherichia coli) (UniProt P0AGE0).
Another series deals with RecO (Escherichia coli) (UniProt B1XB39).

Sequence of UniProt P0AGE0 (P0AGE0 whole entry, looked up): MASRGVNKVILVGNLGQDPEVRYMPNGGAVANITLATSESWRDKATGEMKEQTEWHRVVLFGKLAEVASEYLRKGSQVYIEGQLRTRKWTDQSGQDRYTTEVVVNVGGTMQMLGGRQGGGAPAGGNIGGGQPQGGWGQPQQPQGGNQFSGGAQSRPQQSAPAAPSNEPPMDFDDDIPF

In the case of RecO (from UniProt B1XB39), the Kd in series [1] was 0.15 µM.
For the substance RecR (from UniProt C4ZUS6), the Kd with RecO (Escherichia coli) was 0.126 µM.

In general, Kd refers to the constant that tells how readily two partners part at equilibrium.
